Measured values taken from patent publication US20170000850A1.

Target: CD137 ligand (CD137L) (human) (UniProt P41273)
Test: cell-based or functional assay

Sequence of UniProt P41273 (P41273 whole entry): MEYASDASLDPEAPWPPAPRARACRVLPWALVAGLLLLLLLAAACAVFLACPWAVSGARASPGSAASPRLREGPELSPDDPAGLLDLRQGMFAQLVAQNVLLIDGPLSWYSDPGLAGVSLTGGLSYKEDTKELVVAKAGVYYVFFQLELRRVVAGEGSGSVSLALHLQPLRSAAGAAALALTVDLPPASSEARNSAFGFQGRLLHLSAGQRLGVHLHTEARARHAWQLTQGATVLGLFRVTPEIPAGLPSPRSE

Q: “RBC-CD137-Fc (biotinylated CD137-Fc conjugated through avidin to biotinylated red blood cells) (from UniProt Q07011 24-186) (Fc fusion)” was tested. Which IL-8 production by monocytes co-cultured for 5 days (ELISA) did it give?
A: The IL-8 production by monocytes co-cultured for 5 days (ELISA) was 2 fold.
